Numbering of substitutions follows the chain as printed.

First the molecules themselves.
B1: hVEGF-A165 (ligand, human, UniProt P15692-4 27-191, looked up)
chain: APMAEGGGQNHHEVVKFMDVYQRSYCHPIETLVDIFQEYPDEIEYIFKPSCVPLMRCGGCCNDEGLECVPTEESNITMQIMRIKPHQGQHIGEMSFLQHNKCECRPKKDRARQENPCGPCSERRKHLFVQDPQTCKCSCKNTDSRCKARQLELNERTCRCDKPRR
notes: The cell assays name only 'VEGF-A' without the isoform
B2: VEGF-Trap (Fc fusion, UniProt P17948 129-230, looked up, not shown: a dimerising Fc or GST)
chain: SDTGRPFVEMYSEIPEIIHMTEGRELVIPCRVTSPNITVTLKKFPLDTLIPDGKRIIWDSRKGFIISNATYKEIGLLTCEATVNGHLYKTNYLTHRQTNTIIDVVLSPSHGIELSVGEKLVLNCTARTELNVGIDFNWEYPSSKHQHKKLVNRDLKTQSGSEMKKFLSTLTIDGVTRSDQGLYTCAASSGLMTKKNSTFVRVHEK
modifications: N-glycans at Asn61, Asn93 and Asn328
B3: PlGF (ligand)
chain: LPAVPPQQWALSAGNGSSEVEVVPFQEVWGRSYCRALERLVDVVSEYPSEVEHMFSPSCVSLLRCTGCCGDENLHCVPVETANVTMQLLKIRSGDRPSYVELTFSQHVRCECRHSPGRQSPDMPGDFRADA
B4: VEGF-Grab1 (Fc fusion)
chain: EFGRPFVEMYSEIPEIIHMYEGRELVIPCRVTSPNITVTLKKFPLDTLIPDGKRIIWDSRKGFIISNATYKEIGLLTCEATVNGHLYKTNYLTHRQTNTIIDVQISTPSPVTLLRGHTLVLNCTRTTPLNTRVQMTWSYPDEKNKRASVRRRIDQSNSHANIFYSVLTIDKMQNKDKGLYTCRVRSGPSFKSVNTSVHIYDKALEDKTHTCPPCPAPELLGGPSVFLFPPKPKDTLMISRTPEVTCVVVDVSHEDPEVKFNWYVDGVEVHNAKTKPREEQYNSTYRVVSVLTVLHQDWLNGKEYKCKVSNKALPAPIEKTISKAKGQPREPQVYTLPPSREEMTKNQVSLTCLVKGFYPSDIAVEWESNGQPENNYKYYPPVLDSDGSFFLYSKKTVDKSRWQQGNVFSCSVMHEALHNHYTQKSLSLSPGK
modifications: O-linked glycan (HexNAc1Hex1NeuAc1) at Ser135; N-glycans at Asn61, Asn93 and Asn308; no evidence of O-glycosylation at Thr138
notes: Produced in CHO cells, protein A purified; also called G1; VEGF-Grabs
B5: VEGF-Grab3 (Fc fusion)
chain: B4 chain with R146N
modifications: O-linked glycan (HexNAc1Hex1NeuAc1) at Ser135; N-glycans at Asn61, Asn93 and Asn308; mutated Asn172 not glycosylated; no evidence of O-glycosylation at Thr138
notes: Produced in CHO cells, protein A purified; also called G3; VEGF-Grabs

Experiment [1] addresses B2. The experiment is described as follows: solid phase binding ELISA; hVEGF-A165 coated, Fc fusion titrated, anti-human Fc-HRP. How it is done: (§1) The binding affinities of VEGF-Grabs to ligands were measured by ELISA as described previously. Briefly, the MaxiSorp plates (Nunc) were coated with either hVEGF-A₁₆₅(150 ng/ml), PlGF (62.5 ng/ml), or hVEGF-B (125 ng/ml) and serially increasing amounts (0.1 nM-10 μM) of VEGF-Grabs or VEGF-Trap were added. After washing, the plates were incubated with HRP-conjugated goat anti-human Fc antibody. Then, 3,3′,5,5′-tetramethylbenzidine (TMB) solution (Sigma-Aldrich) was added and absorbance was measured by ELISA reader (BioRad) at 450 nm.

The target in experiment [2] is B1. The experiment is described as follows: cell-based or functional assay.
For experiment [3], the target named is B2. The experiment is described as follows: solid phase binding ELISA; PlGF coated, Fc fusion titrated, anti-human Fc-HRP. As to the method:
as §1

Experiment [4] has as its target B3. Described as above. How it is done:
as §1

Experiment [5] concerns the target B1. The experiment is described as follows: solid phase binding ELISA; hVEGF-A165 coated, Fc fusion titrated, anti-human Fc-HRP. How it is done: as §1
The target of experiment [6] is B1. The experiment is described as follows: solid phase binding ELISA; hVEGF-A165 coated; reference VT. How it is done: as §1
Experiment [7] addresses B3. The experiment is described as follows: solid phase binding ELISA; PlGF coated; reference VT. As to the method:
as §1

Molecule B1 returned a Kd with VEGF-Trap [1] of 0.84 nM.

Turning to B2, the “IC50 of VEGF-A-induced proliferation of HUVECs” value (“IC50” below) with hVEGF-A165 [2] was 4.8 nM.

B3: binding with VEGF-Trap [3] was characterised by a dissociation constant (Kd) of 46 nM.

B4 had a dissociation constant Kd with PlGF [4] of 2.8 nM. In addition, in the experiment with hVEGF-A165 [2], the “IC50” value came to 1.7 nM and the “fold more efficient than VT in inhibiting VEGF-A-induced proliferation of HUVECs” value came out at 2.8 fold. Further, the dissociation constant Kd with hVEGF-A165 [5] amounted to 0.79 nM. Further, the “fold higher affinity than VT” value with hVEGF-A165 [6] came to 1.1 fold. Besides, the “fold more potent binding affinity than VT” value with PlGF [7] stood at 18.5 fold.

Turning to B5, in the experiment with PlGF [4], the Kd stood at 6.9 nM. Besides, in the experiment with hVEGF-A165 [2], the “IC50” value is 2.4 nM and the “fold more efficient than VT in inhibiting VEGF-A-induced proliferation of HUVECs” value was determined as 2 fold. Further, the dissociation constant (Kd) in the experiment with hVEGF-A165 [5] was 0.56 nM. Moreover, the “fold higher affinity than VT” value with hVEGF-A165 [6] came to 1.5 fold. For the same molecule, in the experiment with PlGF [7], the “fold more potent binding affinity than VT” value is 6.7 fold.

The values above are taken from US20160032259A1 (KOREA ADVANCED INSTITUTE OF SCIENCE AND TECHNOLOGY KAIST, published 2016).
